# In article PMC10543426, “The PALB2 DNA-binding domain is an intrinsically disordered recombinase” (Research Square, 2023):
# B1: PALB2 DNA-binding domain (PALB2-DBD), N-terminal fragment 1-195 I195W (domain or fragment, human, UniProt Q86YC2 1-195, looked up)
# chain: MDEPPGKPLSCEEKEKLKEKLAFLKREYSKTLARLQRAQRAEKIKHSIKKTVEEQDCLSQQDLSPQLKHSEPKNKICVYDKLHIKTHLDEETGEKTSITLDVGPESFNPGDGPGGLPIQRTDDTQEHFPHRVSDPSGEQKQKLPSRRKKQQKRTFISQERDCVFGTDSLRLSGKRLKEQEEISSKNPARSPVTEW
# notes: Partner and Localizer of BRCA2 (PALB2), human, amino acids 1-195; the last amino acid mutated to tryptophan to increase absorption at 280 nm; SUMO cleaved with Ulp1 and MBP with TEV protease; also called PLAB2-DBD; source: E. coli BL21*, purified (amylose resin, heparin, gel filtration); not shown: 6×His-SUMO, N-terminal, cleaved; MBP, C-terminal, cleaved
# B2: Cy3-dT50-Cy5 (ssDNA)
# DNA: TTTTTTTTTTTTTTTTTTTTTTTTTTTTTTTTTTTTTTTTTTTTTTTTTT
# B3: Cy3-dT50 (ssDNA)
# DNA: B2 DNA
# B4: Cy3-dT25 (25mer) (ssDNA)
# DNA: TGGCGACGGCAGCGAGGCTCTCTAC
# What was measured:
# [1] = target: PALB2 coiled-coil (Homo sapiens) (UniProt Q86YC2); experiment: NMR titration; conditions: cited from earlier work
# [2] = target: the molecule itself; experiment: AUC; sedimentation velocity, protein alone; 1 M NaCl, 10% glycerol, 1 mM TCEP, 2 mM CHAPS, 25 mM HEPES pH 7.5; 30,000 rpm, 20°C, absorbance at 280 nm; relatively high protein concentration
# [3] = target: the molecule itself; experiment: AUC; sedimentation velocity with Cy3-labelled ssDNA (Cy3-dT50 or Cy3-dT25), DNA:protein molar ratios 1:2 and 1:4 (4 and 8 μM protein), 0.1 M NaCl, 10% glycerol, 1 mM TCEP, 2 mM CHAPS, 25 mM HEPES pH 7.5, 20°C, absorbance at 550 nm; dimers to tetramer
# [4] = target: T1, PALB2-DBD (Homo sapiens, UniProt Q86YC2 1-195, I195W); experiment: smFRET; mean FRET 0.18 free, 0.45 and 0.79 bound; AUC of DNA complexes: 0.1 M NaCl, 20 C; smFRET, EPR and CD buffers not in the material; conditions: protein: recombinant; tags: 6xHis-SUMO and MBP, cleaved by Ulp1/TEV; chain copies: 2; label: 5' Cy3, Cy5 at position 50; single strand
# T1 sequence: B1 chain
# [5] = target: T1, PALB2-DBD; experiment: analytical ultracentrifugation; DNA:protein 1:2 and 1:4; 0.1 M NaCl; AUC of DNA complexes: 0.1 M NaCl, 20 C; smFRET, EPR and CD buffers not in the material; conditions: protein: recombinant; tags: 6xHis-SUMO and MBP, cleaved by Ulp1/TEV; chain copies: 2; label: Cy3; single strand
# [6] = target: T1, PALB2-DBD; experiment: analytical ultracentrifugation; DNA:protein 1:2 and 1:4; no free DNA peak; 0.1 M NaCl; AUC of DNA complexes: 0.1 M NaCl, 20 C; smFRET, EPR and CD buffers not in the material; conditions: protein: recombinant; tags: 6xHis-SUMO and MBP, cleaved by Ulp1/TEV; chain copies: 2; label: 5' Cy3; single strand
molecule,measurement,setting,value
PALB2 coiled-coil (from UniProt Q86YC2),Kd,[1],80 µM
B1,stoichiometry N,[2],2
same,stoichiometry N,[3],4
B2,binding result,[4],binds
B3,binding result,[5],binds
B4,binding result,[6],binds
